Assay results: the supplement of paper PMC5998384

Assays:
HeLa Kyoto [1] = test: solubility in G1/S (NP-40 vs SDS abundance) (log2 ratio); higher = more soluble; conditions: cell cycle stage: G1/S
HeLa Kyoto [2] = test: melting temperature (median over replicates), in situ; higher = more thermally stable
HeLa Kyoto [3] = test: solubility change mitosis vs G1/S (difference of NP-40 vs SDS log2 ratios) (log2 ratio difference); higher = more soluble in mitosis
HeLa Kyoto [4] = test: thermal stability score vs G1/S (z-score of summed log2 fold changes over temperatures); higher = more thermally stable than in G1/S
[5] = cell cycle stage: early G1 (4.5 h after nocodazole release)
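For melting temperature (median over replicates), in situ in this document: HeLa Kyoto cells synchronized by double thymidine or nocodazole block, proteins quantified by TMT10plex mass spectrometry, three independent biological replicates.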
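For solubility change mitosis vs G1/S (difference of NP-40 vs SDS log2 ratios) in this document: synchronized HeLa Kyoto cells (double thymidine block for G1/S, nocodazole release for mitosis), protein amounts in NP-40 versus SDS lysates quantified by mass spectrometry, three biological replicates.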
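For solubility in G1/S (NP-40 vs SDS abundance) in this document: HeLa Kyoto cells arrested at G1/S by double thymidine block, proteins quantified by TMT10plex mass spectrometry in mild NP-40 versus SDS extracts, three biological replicates.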
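For thermal stability score vs G1/S (z-score of summed log2 fold changes over temperatures) in this document: synchronized HeLa Kyoto cells, proteins quantified by TMT10plex mass spectrometry, three biological replicates, mitosis taken 0.5 h after nocodazole release, G1/S directly after double thymidine block.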

Sequence	solubility in G1/S (log2) (HeLa Kyoto [1])	melting temperature (HeLa Kyoto [2]; cell cycle stage: G1/S) [°C]	melting temperature (HeLa Kyoto [2]; cell cycle stage: mitosis) [°C]	solubility change mitosis (log2) (HeLa Kyoto [3])	thermal stability score (HeLa Kyoto [4]; [5])	thermal stability score (HeLa Kyoto [4]; cell cycle stage: mitosis)
MASFVTEVLAHSGRLEKEDLGTRISRLTRRVEEIKGEVCNMISKKYSEFLPSMQSAQGLITQVDKLSEDIDLLKSRIESEVRRDLHVSTGEFTDLKQQLERDSVVLSLLKQLQEFSTAIEEYNCALTEKKYVTGAQRLEEAQKCLKLLKSRKCFDLKILKSLSMELTIQKQNILYHLGEEWQKLIVWKFPPSKDTSSLESYLQTELHLYTEQSHKEEKTPMPPISSVLLAFSVLGELHSKLKSFGQMLLKYILRPLASCPSLHAVIESQPNIVIIRFESIMTNLEYPSPSEVFTKIRLVLEVLQKQLLDLPLDTDLENEKTSTVPLAEMLGDMIWEDLSECLIKNCLVYSIPTNSSKLQQYEEIIQSTEEFENALKEMRFLKGDTTDLLKYARNINSHFANKKCQDVIVAARNLMTSEIHNTVKIIPDSKINVPELPTPDEDNKLEVQKVSNTQYHEVMNLEPENTLDQHSFSLPTCRISESVKKLMELAYQTLLEATTSSDQCAVQLFYSVRNIFHLFHDVVPTYHKENLQKLPQLAAIHHNNCMYIAHHLLTLGHQFRLRLAPILCDGTATFVDLVPGFRRLGTECFLAQMRAQKGELLERLSSARNFSNMDDEENYSAASKAVRQVLHQLKRLGIVWQDVLPVNIYCKAMGTLLNTAISEVIGKITALEDISTEDGDRLYSLCKTVMDEGPQVFAPLSEESKNKKYQEEVPVYVPKWMPFKELMMMLQASLQEIGDRWADGKGPLAAAFSSSEVKALIRALFQNTERRAAALAKIK [ZW10]	-0.218	49.6	49.5	-0.19	0.485	1.13
MASGEHSPGSGAARRPLHSAQAVDVASASNFRAFELLHLHLDLRAEFGPPGPGAGSRGLSGTAVLDLRCLEPEGAAELRLDSHPCLEVTAAALRRERPGSEEPPAEPVSFYTQPFSHYGQALCVSFPQPCRAAERLQVLLTYRVGEGPGVCWLAPEQTAGKKKPFVYTQGQAVLNRAFFPCFDTPAVKYKYSALIEVPDGFTAVMSASTWEKRGPNKFFFQMCQPIPSYLIALAIGDLVSAEVGPRSRVWAEPCLIDAAKEEYNGVIEEFLATGEKLFGPYVWGRYDLLFMPPSFPFGGMENPCLTFVTPCLLAGDRSLADVIIHEISHSWFGNLVTNANWGEFWLNEGFTMYAQRRISTILFGAAYTCLEAATGRALLRQHMDITGEENPLNKLRVKIEPGVDPDDTYNETPYEKGFCFVSYLAHLVGDQDQFDSFLKAYVHEFKFRSILADDFLDFYLEYFPELKKKRVDIIPGFEFDRWLNTPGWPPYLPDLSPGDSLMKPAEELAQLWAAEELDMKAIEAVAISPWKTYQLVYFLDKILQKSPLPPGNVKKLGDTYPSISNARNAELRLRWGQIVLKNDHQEDFWKVKEFLHNQGKQKYTLPLYHAMMGGSEVAQTLAKETFASTASQLHSNVVNYVQQIVAPKGS [RNPEP]	0.182	50.1	50.3	-0.179	1.06	1.25
MASGVTVNDEVIKVFNDMKVRKSSTQEEIKKRKKAVLFCLSDDKRQIIVEEAKQILVGDIGDTVEDPYTSFVKLLPLNDCRYALYDATYETKESKKEDLVFIFWAPESAPLKSKMIYASSKDAIKKKFTGIKHEWQVNGLDDIKDRSTLGEKLGGNVVVSLEGKPL [CFL2]	0.129	55.1	54.2	-0.058	-0.937	-3.81
MASILDEYENSLSRSAVLQPGCPSVGIPHSGYVNAQLEKEVPIFTKQRIDFTPSERITSLVVSSNQLCMSLGKDTLLRIDLGKANEPNHVELGRKDDAKVHKMFLDHTGSHLLIALSSTEVLYVNRNGQKVRPLARWKGQLVESVGWNKALGTESSTGPILVGTAQGHIFEAELSASEGGLFGPAPDLYFRPLYVLNEEGGPAPVCSLEAERGPDGRSFVIATTRQRLFQFIGRAAEGAEAQGFSGLFAAYTDHPPPFREFPSNLGYSELAFYTPKLRSAPRAFAWMMGDGVLYGALDCGRPDSLLSEERVWEYPEGVGPGASPPLAIVLTQFHFLLLLADRVEAVCTLTGQVVLRDHFLEKFGPLKHMVKDSSTGQLWAYTERAVFRYHVQREARDVWRTYLDMNRFDLAKEYCRERPDCLDTVLAREADFCFRQRRYLESARCYALTQSYFEEIALKFLEARQEEALAEFLQRKLASLKPAERTQATLLTTWLTELYLSRLGALQGDPEALTLYRETKECFRTFLSSPRHKEWLFASRASIHELLASHGDTEHMVYFAVIMQDYERVVAYHCQHEAYEEALAVLARHRDPQLFYKFSPILIRHIPRQLVDAWIEMGSRLDARQLIPALVNYSQGGEVQQVSQAIRYMEFCVNVLGETEQAIHNYLLSLYARGRPDSLLAYLEQAGASPHRVHYDLKYALRLCAEHGHHRACVHVYKVLELYEEAVDLALQVDVDLAKQCADLPEEDEELRKKLWLKIARHVVQEEEDVQTAMACLASCPLLKIEDVLPFFPDFVTIDHFKEAICSSLKAYNHHIQELQREMEEATASAQRIRRDLQELRGRYGTVEPQDKCATCDFPLLNRPFYLFLCGHMFHADCLLQAVRPGLPAYKQARLEELQRKLGAAPPPAKGSARAKEAEGGAATAGPSREQLKADLDELVAAECVYCGELMIRSIDRPFIDPQRYEEEQLSWL [VPS18]	-0.115	50.1	49.5	-0.0584	0.54	1.02
MASILLRSCRGRAPARLPPPPRYTVPRGSPGDPAHLSCASTLGLRNCLNVPFGCCTPIHPVYTSSRGDHLGCWALRPECLRIVSRAPWTSTSVGFVAVGPQCLPVRGWHSSRPVRDDSVVEKSLKSLKDKNKKLEEGGPVYSPPAEVVVKKSLGQRVLDELKHYYHGFRLLWIDTKIAARMLWRILNGHSLTRRERRQFLRICADLFRLVPFLVFVVVPFMEFLLPVAVKLFPNMLPSTFETQSLKEERLKKELRVKLELAKFLQDTIEEMALKNKAAKGSATKDFSVFFQKIRETGERPSNEEIMRFSKLFEDELTLDNLTRPQLVALCKLLELQSIGTNNFLRFQLTMRLRSIKADDKLIAEEGVDSLNVKELQAACRARGMRALGVTEDRLRGQLKQWLDLHLHQEIPTSLLILSRAMYLPDTLSPADQLKSTLQTLPEIVAKEAQVKVAEVEGEQVDNKAKLEATLQEEAAIQQEHREKELQKRSEVAKDFEPERVVAAPQRPGTEPQPEMPDTVLQSETLKDTAPVLEGLKEEEITKEEIDILSDACSKLQEQKKSLTKEKEELELLKEDVQDYSEDLQEIKKELSKTGEEKYVEESKASKRLTKRVQQMIGQIDGLISQLEMDQQAGKLAPANGMPTGENVISVAELINAMKQVKHIPESKLTSLAAALDENKDGKVNIDDLVKVIELVDKEDVHISTSQVAEIVATLEKEEKVEEKEKAKEKAEKEVAEVKS [LETM1]	0.088	52.9	52.3	-0.0749	-0.277	-1.56
MASIWVGHRGTVRDYPDFSPSVDAEAIQKAIRGIGTDEKMLISILTERSNAQRQLIVKEYQAAYGKELKDDLKGDLSGHFEHLMVALVTPPAVFDAKQLKKSMKGAGTNEDALIEILTTRTSRQMKDISQAYYTVYKKSLGDDISSETSGDFRKALLTLADGRRDESLKVDEHLAKQDAQILYKAGENRWGTDEDKFTEILCLRSFPQLKLTFDEYRNISQKDIVDSIKGELSGHFEDLLLAIVNCVRNTPAFLAERLHRALKGIGTDEFTLNRIMVSRSEIDLLDIRTEFKKHYGYSLYSAIKSDTSGDYEITLLKICGGDD [ANXA3]	0.2	52.3	52.2	-0.0404	-0.635	-1.21
MASKEMFEDTVEERVINEEYKIWKKNTPFLYDLVMTHALQWPSLTVQWLPEVTKPEGKDYALHWLVLGTHTSDEQNHLVVARVHIPNDDAQFDASHCDSDKGEFGGFGSVTGKIECEIKINHEGEVNRARYMPQNPHIIATKTPSSDVLVFDYTKHPAKPDPSGECNPDLRLRGHQKEGYGLSWNSNLSGHLLSASDDHTVCLWDINAGPKEGKIVDAKAIFTGHSAVVEDVAWHLLHESLFGSVADDQKLMIWDTRSNTTSKPSHLVDAHTAEVNCLSFNPYSEFILATGSADKTVALWDLRNLKLKLHTFESHKDEIFQVHWSPHNETILASSGTDRRLNVWDLSKIGEEQSAEDAEDGPPELLFIHGGHTAKISDFSWNPNEPWVICSVSEDNIMQIWQMAENIYNDEESDVTTSELEGQGS [RBBP7]	0.0292	53	53.3	-0.157	-0.845	-1.83
MASKGAGMSFSRKSYRLTSDAEKSRVTGIVQEKLLNDYLNRIFSSSEHAPPAATSRKPLNFQNLPEHLDQLLQVDNEEEESQGQVEGRLGPSTVVLDHTGGFEGLLLVDDDLLGVIGHSNFGTIRSTTCVYKGKWLYEVLISSQGLMQIGWCTISCRFNQEEGVGDTHNSYAYDGNRVRKWNVTTTNYGKAWAAGDIVSCLIDLDDGTLSFCLNGVSLGTAFENLSRGLGMAYFPAISLSFKESVAFNFGSRPLRYPVAGYRPLQDPPSADLVRAQRLLGCFRAVLSVELDPVEGRLLDKESSKWRLRGQPTVLLTLAHIFHHFAPLLRKVYLVEAVLMSFLLGIVEKGTPTQAQSVVHQVLDLLWLFMEDYEVQDCLKQLMMSLLRLYRFSPIVPDLGLQIHYLRLTIAILRHEKSRKFLLSNVLFDVLRSVVFFYIKSPLRVEEAGLQELIPTTWWPHCSSREGKESTEMKEETAEERLRRRAYERGCQRLRKRIEVVEELQVQILKLLLDNKDDNGGEASRYIFLTKFRKFLQENASGRGNMPMLCPPEYMVCFLHRLISALRYYWDEYKASNPHASFSEEAYIPPQVFYNGKVDYFDLQRLGGLLSHLRKTLKDDLASKANIVIDPLELQSTAMDDLDEDEEPAPAMAQRPMQALAVGGPLPLPRPGWLSSPTLGRANRFLSTAAVSLMTPRRPLSTSEKVKVRTLSVEQRTREDIEGSHWNEGLLLGRPPEEPEQPLTENSLLEVLDGAVMMYNLSVHQQLGKMVGVSDDVNEYAMALRDTEDKLRRCPKRRKDILAELTKSQKVFSEKLDHLSRRLAWVHATVYSQEKMLDIYWLLRVCLRTIEHGDRTGSLFAFMPEFYLSVAINSYSALKNYFGPVHSMEELPGYEETLTRLAAILAKHFADARIVGTDIRDSLMQALASYVCYPHSLRAVERIPEEQRIAMVRNLLAPYEQRPWAQTNWILVRLWRGCGFGYRYTRLPHLLKTKLEDANLPSLQKPCPSTLLQQHMADLLQQGPDVAPSFLNSVLNQLNWAFSEFIGMIQEIQQAAERLERNFVDSRQLKVCATCFDLSVSLLRVLEMTITLVPEIFLDWTRPTSEMLLRRLAQLLNQVLNRVTAERNLFDRVVTLRLPGLESVDHYPILVAVTGILVQLLVRGPASEREQATSVLLADPCFQLRSICYLLGQPEPPAPGTALPAPDRKRFSLQSYADYISADELAQVEQMLAHLTSASAQAAAASLPTSEEDLCPICYAHPISAVFQPCGHKSCKACINQHLMNNKDCFFCKTTIVSVEDWEKGANTSTTSSAA [RNF123]	-0.366	50.4	50.3	0.0631	-0.758	0.258
